Test results: patent US6017747A, “Nucleic acids encoding a collagenase” (The Regents of the University of California, priority 1997, dated 2000)

T1: recombinant collagenase (Leptuca pugilator, UniProt P00771)
T1 construct: the mature form of the cloned collagenase (illustrated in the boxed section) has 226 amino acid residues; made in house; host or cells: Saccharomyces cerevisiae (strain AB110 or DM101α), PyFC vector
T1 sequence (P00771 1-226 V95S): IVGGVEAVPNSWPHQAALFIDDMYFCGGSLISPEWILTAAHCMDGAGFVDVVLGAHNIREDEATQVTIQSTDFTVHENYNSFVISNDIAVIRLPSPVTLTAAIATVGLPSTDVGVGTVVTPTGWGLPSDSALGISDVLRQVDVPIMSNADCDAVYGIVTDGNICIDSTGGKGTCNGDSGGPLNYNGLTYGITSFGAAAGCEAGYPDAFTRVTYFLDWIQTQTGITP


How the values were obtained:
recombinant collagenase = biological target: T1, recombinant collagenase; assay: Inhibition of collagenolytic activity of recombinant collagenase; type: biochemical, Uca pugilator; conditions: recombinant enzyme
From the text: The collagenolytic activity of the recombinant collagenase was compared directly to that of the endogenous enzyme isolated from the crab hepatopancreas. The specificity and rate of collagen cleavage are similar.

[1] = Steady state kinetics versus the Suc-AAP-Xaa-pNA substrate set; type: biochemical; conditions: for r of correlation for log kcat or log (kcat /Km) versus P1 residue volume: Val and Ile omitted for chymotrypsin, Nva and Leu deleted for elastase; for correlation of log (kcat /Km) with π: hydrophobicity constant π
Method: Recombinant rat trypsin was purified by published techniques. Other reagents were purchased from the following sources: TLCK treated bovine chymotrypsin (Sigma), porcine elastase (Calbiochem), bovine calf skin collagen (US Biochemical), Suc-AAPAbu-pNA (Bachem of California) and Z-GPR-Sbzl (Enzyme Systems Products). All other substrates were from Bachem Bioscience. All enzyme active site titrations, substrate calibrations, kinetic assays and collagen digestions were carried out by conventional methods. Briefly, pNA kinetic assays were monitored at 410 nm (E410 =8,480 M^-1 cm^-1) in 50 mM Tris, 100 mM NaCl, 20 mM CaCl2, pH 8.0 at 25° C. 1 to 4% DMF or 2% Me2 SO was present in the final reaction buffer. Benzylthioester kinetic assays were monitored at 324 nm (E324 =19,800 M^-1 cm^-1) in the above buffer at 25° C. with the inclusion of 250 μM dithiodipyridine (Chemical Dynamics) and 2% DMF. AMC spectrofluorimetric assays were monitored at an excitation wavelength of 380 nm and an emission wavelength of 460 nm, under conditions identical to those for pNA. Assays were done in duplicate for 5 substrate concentrations, except for Suc-AAP-Asp-pNA, for which the kcat /Km was determined using 3 substrate concentrations in duplicate. The steady state kinetic parameters were determined by non-linear regression fit to the Michaelis Menten equation. Standard deviation in kcat /Km was generally less than 10%, though individual rate and binding constants varied to a greater extent. […] Kinetic parameters were plotted versus P1 residue volume and the hydrophobicity constant, π.
The Michaelis constants of the recombinant collagenase were determined for a matched set of 15 Suc-AAP-Xaa-pNA substrates, varying only in the P1 residue. […] The remaining 10 substrates Ala, Abu (2-aminobutyric acid), Nva (norvaline), Val, Nle (norleucine), Ile, Met, Orn (ornithine), Asp and Glu were selected to more fully map the specificity of crab collagenase for hydrophobic, basic and acidic residues. The substrate preference of the collagenase is quite broad. […] Acidic residues are generally poor substrates. […] This implies the existence of several distinct S1 sites or a single flexible site. […] The correlation is improved and slope essentially unchanged if only the hydrophobic residues Ala, Abu (2-aminobutyric acid), Nva (norvaline), Nle (norleucine), Leu, Met and Phe are included. […] It is unclear how the enzyme binds the neutral hydrophilic and basic residues so as to minimize the effects of charge or polarity in the transition state. Bias or insensitivity in the data set may also affect the interpretation of the correlations.
The steady state kinetic parameters of chymotrypsin and elastase versus the Suc-AAP-Xaa-pNA substrate set were determined under conditions identical to those for crab collagenase. This was necessary in order to accurately compare the activities of these different enzymes.

[2] = Single residue versus peptidyl P1-Ala substrate efficiency; type: biochemical
Method: (§1) Recombinant rat trypsin was purified by published techniques. Other reagents were purchased from the following sources: TLCK treated bovine chymotrypsin (Sigma), porcine elastase (Calbiochem), bovine calf skin collagen (US Biochemical), Suc-AAPAbu-pNA (Bachem of California) and Z-GPR-Sbzl (Enzyme Systems Products). All other substrates were from Bachem Bioscience. All enzyme active site titrations, substrate calibrations, kinetic assays and collagen digestions were carried out by conventional methods. Briefly, pNA kinetic assays were monitored at 410 nm (E410 =8,480 M^-1 cm^-1) in 50 mM Tris, 100 mM NaCl, 20 mM CaCl2, pH 8.0 at 25° C. 1 to 4% DMF or 2% Me2 SO was present in the final reaction buffer. Benzylthioester kinetic assays were monitored at 324 nm (E324 =19,800 M^-1 cm^-1) in the above buffer at 25° C. with the inclusion of 250 μM dithiodipyridine (Chemical Dynamics) and 2% DMF. AMC spectrofluorimetric assays were monitored at an excitation wavelength of 380 nm and an emission wavelength of 460 nm, under conditions identical to those for pNA. Assays were done in duplicate for 5 substrate concentrations, except for Suc-AAP-Asp-pNA, for which the kcat /Km was determined using 3 substrate concentrations in duplicate. The steady state kinetic parameters were determined by non-linear regression fit to the Michaelis Menten equation. […]

[3] = single residue esters; cited from earlier work
[4] = Single residue versus peptidyl P1-Phe substrate efficiency; type: biochemical
Method: as §1

[5] = Single residue versus peptidyl P1-Arg substrate efficiency; type: biochemical
Method: as §1

Molecule	inhibition of collagenolytic activity (recombinant collagenase)	correlation for log kcat or log (kcat /Km) versus P1 residue volume [1]	correlation of Km versus volume [1]	sensitivity of log (kcat /Km) to residue volume [1]	r of correlation for log kcat or log (kcat /Km) versus P1 residue volume [1]	correlation of log (kcat /Km) with π [1]	kcat /Km differential, single residue versus peptidyl substrate [2]	slope of correlation of log (k2 /KS) with π [3]	kcat /Km differential, single residue versus peptidyl substrate [4]	kcat /Km differential, single residue versus peptidyl substrate [5] [fold]
NCCc1ccc(S(=O)(=O)F)cc1 [AEBSF]	completely inhibited									
elastase: porcine elastase (Calbiochem)		negative	much weaker	twice that of collagenase	≤ 0.95	correlated well, with a slope equal and opposite that for chymotrypsin	100,000 fold			
Chymotrypsin		Strong positive	tight negative correlation	twice that of collagenase	≤ 0.95	also correlated with π		2.2	10,000 fold	
Trypsin: Recombinant rat trypsin purified by published techniques (protein, UniProt P00763 24-246, looked up) Anionic trypsin-2: IVGGYTCQENSVPYQVSLNSGYHFCGGSLINDQWVVSAAHCYKSRIQVRLGEHNINVLEGNEQFVNAAKIIKHPNFDRKTLNNDIMLIKLSSPVKLNARVATVALPSSCAPAGTQCLISGWGNTLSSGVNEPDLLQCLDAPLLPQADCEASYPGKITDNMVCVGFLEGGKDSCQGDSGGPVVCNGELQGIVSWGYGCALPDNPGVYTKVCNYVDWIQDTIAAN										100
